Molecular target: T1, rhCIRP (Homo sapiens, UniProt Q14011)
T1 sequence (Q14011 1-172): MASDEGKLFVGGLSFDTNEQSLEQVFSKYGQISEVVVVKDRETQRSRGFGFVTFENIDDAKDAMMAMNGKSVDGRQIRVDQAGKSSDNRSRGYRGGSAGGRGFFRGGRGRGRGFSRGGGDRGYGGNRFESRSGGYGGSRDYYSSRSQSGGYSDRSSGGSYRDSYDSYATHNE
Test: Biacore binding of recombinant human proteins (rhCIRP and rhMFG-E8)
Conditions: read-out: KD between rhCIRP and rhMFG-E8

B1: rhMFG-E8: recombinant human MFG-E8 (protein)
chain: LDICSKNPCHNGGLCEEISQEVRGDVFPSYTCTCLKGYAGNHCETKCVEPLGLENGNIANSQIAASSVRVTFLGLQHWVPELARLNRAGMVNAWTPSSNDDNPWIQVNLLRRMWVTGVVTQGASRLASHEYLKAFKVAYSLNGHEFDFIHDVNKKHKEFVGNWNKNAVHVNLFETPVEAQYVRLYPTSCHTACTLRFELLGCELNGCANPLGLKNNSIPDKQITASSSYKTWGLHLFSWNPSYARLDKQGNFNAWVAGSYGNDQWLQVDLGSSKEVTGIITQGARNFGSVQFVASYKVAYSNDSANWTEYQDPRTGSSKIFPGNWDNHSHKKNLFETPILARYVRILPVAWHNRIALRLELLGC
B1 was tested, and the Kd was 0.029 µM.
